According to paper PMC9520037 (The Journal of Biological Chemistry, 2022):

Target: T1, MAP2c-1-467 with N-terminal histidine tag (H6-MAP2c) (rat, UniProt P15146-3 1-467, RED-tris-NTA fluorescent label on the histidine tag)
T1 sequence: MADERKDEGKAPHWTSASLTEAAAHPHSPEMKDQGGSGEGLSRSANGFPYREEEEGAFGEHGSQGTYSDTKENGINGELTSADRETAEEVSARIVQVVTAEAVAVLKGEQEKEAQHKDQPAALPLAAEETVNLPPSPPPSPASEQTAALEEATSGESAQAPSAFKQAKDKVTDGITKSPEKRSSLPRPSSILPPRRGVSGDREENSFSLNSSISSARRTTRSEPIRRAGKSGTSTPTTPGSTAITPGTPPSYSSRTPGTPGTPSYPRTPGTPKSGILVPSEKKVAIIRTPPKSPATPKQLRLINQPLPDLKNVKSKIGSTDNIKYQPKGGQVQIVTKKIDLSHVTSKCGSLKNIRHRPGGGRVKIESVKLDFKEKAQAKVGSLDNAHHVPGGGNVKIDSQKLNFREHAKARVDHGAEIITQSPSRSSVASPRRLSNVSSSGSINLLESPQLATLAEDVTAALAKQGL
Assay: MST

Kd: 22 ± 5 nM
B1: SH3 domain of Fyn fused to hexahistidine tag (Fyn-SH3) (domain or fragment)
chain: not shown
